According to the supplement of paper PMC9170038:

Test system: K4 kissing-loop RNA reporter
Assay: apparent KD of K4 kissing-loop reporter; higher = weaker reporter binding
Conditions: Eterna round: R107; input ligand: theophylline 20 uM
Protocol: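 RNA-MaP round R107: designed RNA switches with theophylline, tryptophan, arginine or FMN aptamers are transcribed on-chip within common flanks. They are titrated with a labelled K4 kissing-loop RNA reporter in RNA-MaP buffer (100 mM Tris pH 7.5, 80 mM KCl, 4 mM MgCl2), without ligand or with the indicated ligand. Median apparent KD per design.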
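Note: bound reporter read as fluorescence of individual clusters on recovered sequencing chips by microscopy, with normalized cluster intensities fitted with a binding model.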

Sequence	apparent KD of K4 kissing-loop reporter [nM]
CACGAUGAAUUCUCUAGGAGUGAUGUUUUUCGAGGACCGGUACGGCCGCCACUCGGACCAGGAGCGUGGUAGCGGCGAAAAGACU [zpmullin]	523
UAACUGCAGUGAUGUUGCAGAUGUCCUGACUAGGAUAUCAGGAAACUGAGAAGGAGUGCCUUCUAAACAUCACAGAAGGUGGACA [KL-SSFMN-A28]	286
AGUGAACGAGCGGCCGCCACUAAAUGAGUGAUGUUCGUGAGUAGUGCUGUUCUCAUGAUUGUUUUUAGGACCGGGUUCGAUGUUG [edcclmullin]	576
AGUUUAGAGUGACUCGAUAAGAGUCACAAACGAGGACCGGUACGGCCGCCACUCGAAAUAACGAGAGUGAUGUUCUCGCUGGGUA [FiskerMod 4 - Jieux - Same State Tryptophan A]	317
AGUCCUAUGACGGCCGCCACUCCGGUUAUGAUUUGCCAAGUGAUGUUUGGGUAUCAGGCGAGGCGGAGGACCGGGUCGACCUGCC [theeternabot_exclusion_KL_Trp_B_18]	129
UGGGAUGUUAAAGGAUAUAGAAAGUGAUAUUAGAAAGUGAGUGAUGUUGAUGUAAGUGAUGAUAUGUUAGAAGGUUAACAAAACG [abcd]	472
AGACUACCACACUGUCAAUAGACAGUGAACUCGGAUAUGCUGAUAAGCAGAAGGAGUGAUGUUCCGAGGUAGUCAAUAAAAUAAU [FmnAX 13 C32+G66]	448
AGACCCUGGUAGGAUACCAGCGGCAUGCAGUGCGAGAGAGCGUAGUGAUGUUACGAGACCCGCCCUUGGCAGCCUGGGAAUGUGU [theeternabot_exclusion_KL_Theo_B_50]	75.5

Same assay, conditions: Eterna round: R107; input ligand: tryptophan 2.4 mM

Sequence	apparent KD of K4 kissing-loop reporter [nM]
GAUUCUAGCGAAAGUGAUGUUUUCGAGGAUACCAGUGCCACUUGACACCCUUGGCAGCCUACCCGUCAUCACAAGUGGCGUUAAA [theeternabot_exclusion_KL_Theo_A_28]	118
AGGAUCCGUCGACAAAAGUCGACAUAAUCCGAGGAUAUGACGAAAGUCAGAAGGUGGACAUAAGUCCAGUGAUGUUGGAGGAUCC [FmnA 17 #SwitchBubble #K4Late]	193
GCAGUGAUGUUGCGGAUGUACAGUGGCGUGCGAGGACCGGUACGGCCGCCACUCGUACAGAGCAAGCUAAUACAUCGAUAGGUGA [whbob_SS_Tryp_A_m4]	240
AAGCAGUCCCUUGUUGUCAUCGAAGAUGAACGAGGACCGGUACGGCCGCCACUCGGAGUGAUGUUCCGAAGGCUGCAAAAUAAAA [MatMod 20 - Jieux - Exclusion - Tryptophan A]	205
CCAUCGCUAUUCGAUACCAGUCAGGAGGUCUUUGGCCUCCUAAUGGAGUGAUGUUCCUUAGACCCUUGGCAGCGAAUAGUGAUGG [Theophylline B K4 14]	249
AUGGUAUUGCGAGGAUAUCCUUCCCACGUCGAAGUACCGUGCUUGAUGGAGUGAUGUUCGAUCAGAGGAGAAGGCGCGGUGUUAU [Same State FMN B GF22]	639
UAAUAUCCGUCGGCCGCCACUCACCAGUGAUGUUGGAGGAGUGAUGUUCCACGAGUGAUGUUCGAGAGGACCGGGACGGACGAUG [6th]	103
UGAUACCAGACGGCCGCCACUCCUAGUGAUGUUAGGAACCUAAAAUAGCAUGUCAAAGACAUGCGGAGGACCGGGUCUGGUAUCU [TrypBX 23 #SwitchBubble #Palindromic #StaticStem]	254
UGAUUGGCGAAAGUAGUGAUGUUACGAAUAUAGGAUAUUAGAGGAAUAAGAAGGAUAAAUGAGAAAUAGGUAAAUUGUUGGUUGG [FMN same state]	94.5
AGUGAUGUGGGAAGGAGCGGUAUAAGAAUUCAGUGAUGUUGAAGUGUUGCUGUAAUAAAGAGCCAGGUAGGUCGCCUAGAUGUUA [KL-XARG B30]	562
GAUUAAUAAGAGGAUACCAGUACUAAUAAAGUACAUUAAUAGUAGAGUGAUGUUCUAAAGUACCCUUGGCAGCUUAGAGUAAGUU [#08 K4 Theophylline B Exclusion]	97.5
ACGCUGGAUGAAUAACAUCUAGCGAAAAUUCGAGGACCGGUACGGCCGCCACUCGAGCUAACUGCGAGUGAUGUUCGAUAAUAAA [Mat - Mod of OpenEnded 3 - D6]	72.1
AGGAGUGAUGUUCCUACAUACACGGUCCGACGAGGACCGGUACGGCCGCCACUCGCGUCCCAGUGAUGUUGGGAUUUGGCGUACA [Exclusion Tryptophan A Gf 16]	144
GAUUUAGAGGCGGCCGCCACUAGUGAUGUUAGUGAUGUUUGAUAGGGAAUAUAUCUGCGAGUAGAUAGGACCGGGCCAGAUGGAG [eccvbmullin]	151
AGGCACGAGCAAGGAUAUUGAGUAGAGUGAUGUUCUGCCUGGGUUGGCUCGGAAGAGCCUUCUCAGCGAGAAGGUGCUCGUGCCU [#2 Same State - FMN A Attempt #24 (HarryS)]	556
GCCCGGUGAAUCCGCCAAGAUAGACACCGUCGAGGACCGGUACGGCCGCCACUCGAGUACGAGUGAUGUUCGUACGCGGUGUCGA [Onedzate]	189

Sequence	apparent KD of K4 kissing-loop reporter [nM]
GUUACGCAUGGAAGGAGCGCUCUCCGGCUUAUUAACACAGUGAUGUUGUGAUUUUGCCGAAAGCAGGUAGGUCGCCAUGUGUAAC [Ex Arginine B K4 11]	451
AAAUAAAUCACGGCCGCCACUGCUAGAGUGAUGUUCUAUUAAUAAUUUCUAAAUUAUAUAAUACUCAGGACCGGGUGAUUUUUAA [JR_SSTryptoB_Sub020]	446
UGUCAUUGGUCGGCCGCCACUUCAUAUAGAGUGAUGUUCUGAAAGACGGAUCGAAAGAUCUGUCGAAGGACCGGGACCGAUGACU [FiskerMod 12 - Jieux - Same State - Tryptophan B]	268
UUAUUAUAUUGUAAUGAUAUAGAAACCGAAGGAGCGACAUAAAAGUCAGGUAGGUCGCGGUGUACUCAGUGAUGUUGAGAGUAUU [JR_SSArginiA_Sub013]	100
AAUAAGGUCGCCGAUACCAGCGCAGGCAGAGCAAAGCUCUGCCUGGUAGUGAUGUUACCGCGCCCUUGGCAGCGGUGGCACGACC [Omei KL Theo B SS C v5]	85.9
AUUAAUUUCAGAGGAUAUGCUUAAUUGAUUAAAUAUAAUCUAUUAUGCAGUGAUGUUGCAUUUUUUGCAGAAGGCUGAUUUAUAA [JR_SSFMNB_Sub017]	385
GCCUGGGCCCGAAGGAGCGCCGUGACAGGUUACUGCAUUGAGCAGUGAUGUUGCUCAAUCUGGCAGGUAGGUCGCGGGCCCAGGC	93.1
UGGAGUUGACGAAAAGUCAACUCCUGAGAUACCAGUGACGAAGGUCACCCUUGGCAGCUCACUGCUAGUGAUGUUGGAAGAUAAA [whbob_SS_Theo_A_w48]	792
CACGAUGAAUUCUCUAGGAGUGAUGUUUUUCGAGGACCGGUACGGCCGCCACUCGGACCAGGAGCGUGGUAGCGGCGAAAAGACU [zpmullin]	484
UAACUGCAGUGAUGUUGCAGAUGUCCUGACUAGGAUAUCAGGAAACUGAGAAGGAGUGCCUUCUAAACAUCACAGAAGGUGGACA [KL-SSFMN-A28]	458
AGUGAACGAGCGGCCGCCACUAAAUGAGUGAUGUUCGUGAGUAGUGCUGUUCUCAUGAUUGUUUUUAGGACCGGGUUCGAUGUUG [edcclmullin]	662
AGUUUAGAGUGACUCGAUAAGAGUCACAAACGAGGACCGGUACGGCCGCCACUCGAAAUAACGAGAGUGAUGUUCUCGCUGGGUA [FiskerMod 4 - Jieux - Same State Tryptophan A]	93.3
AGUCCUAUGACGGCCGCCACUCCGGUUAUGAUUUGCCAAGUGAUGUUUGGGUAUCAGGCGAGGCGGAGGACCGGGUCGACCUGCC [theeternabot_exclusion_KL_Trp_B_18]	152
UGGGAUGUUAAAGGAUAUAGAAAGUGAUAUUAGAAAGUGAGUGAUGUUGAUGUAAGUGAUGAUAUGUUAGAAGGUUAACAAAACG [abcd]	379
AGACUACCACACUGUCAAUAGACAGUGAACUCGGAUAUGCUGAUAAGCAGAAGGAGUGAUGUUCCGAGGUAGUCAAUAAAAUAAU [FmnAX 13 C32+G66]	521
AGACCCUGGUAGGAUACCAGCGGCAUGCAGUGCGAGAGAGCGUAGUGAUGUUACGAGACCCGCCCUUGGCAGCCUGGGAAUGUGU [theeternabot_exclusion_KL_Theo_B_50]	72.6
